Experimental data published in patent publication US7595158B2, “Bcl2L12 polypeptide activators and inhibitors” (Dana-Farber Cancer Institute, Inc., priority 2003, dated 2009).

T1: Apaf-1 polypeptide (Homo sapiens, UniProt O14727)
T1 construct: endogenous in cells; host or cells: 293T
T1 sequence (O14727 1-1248): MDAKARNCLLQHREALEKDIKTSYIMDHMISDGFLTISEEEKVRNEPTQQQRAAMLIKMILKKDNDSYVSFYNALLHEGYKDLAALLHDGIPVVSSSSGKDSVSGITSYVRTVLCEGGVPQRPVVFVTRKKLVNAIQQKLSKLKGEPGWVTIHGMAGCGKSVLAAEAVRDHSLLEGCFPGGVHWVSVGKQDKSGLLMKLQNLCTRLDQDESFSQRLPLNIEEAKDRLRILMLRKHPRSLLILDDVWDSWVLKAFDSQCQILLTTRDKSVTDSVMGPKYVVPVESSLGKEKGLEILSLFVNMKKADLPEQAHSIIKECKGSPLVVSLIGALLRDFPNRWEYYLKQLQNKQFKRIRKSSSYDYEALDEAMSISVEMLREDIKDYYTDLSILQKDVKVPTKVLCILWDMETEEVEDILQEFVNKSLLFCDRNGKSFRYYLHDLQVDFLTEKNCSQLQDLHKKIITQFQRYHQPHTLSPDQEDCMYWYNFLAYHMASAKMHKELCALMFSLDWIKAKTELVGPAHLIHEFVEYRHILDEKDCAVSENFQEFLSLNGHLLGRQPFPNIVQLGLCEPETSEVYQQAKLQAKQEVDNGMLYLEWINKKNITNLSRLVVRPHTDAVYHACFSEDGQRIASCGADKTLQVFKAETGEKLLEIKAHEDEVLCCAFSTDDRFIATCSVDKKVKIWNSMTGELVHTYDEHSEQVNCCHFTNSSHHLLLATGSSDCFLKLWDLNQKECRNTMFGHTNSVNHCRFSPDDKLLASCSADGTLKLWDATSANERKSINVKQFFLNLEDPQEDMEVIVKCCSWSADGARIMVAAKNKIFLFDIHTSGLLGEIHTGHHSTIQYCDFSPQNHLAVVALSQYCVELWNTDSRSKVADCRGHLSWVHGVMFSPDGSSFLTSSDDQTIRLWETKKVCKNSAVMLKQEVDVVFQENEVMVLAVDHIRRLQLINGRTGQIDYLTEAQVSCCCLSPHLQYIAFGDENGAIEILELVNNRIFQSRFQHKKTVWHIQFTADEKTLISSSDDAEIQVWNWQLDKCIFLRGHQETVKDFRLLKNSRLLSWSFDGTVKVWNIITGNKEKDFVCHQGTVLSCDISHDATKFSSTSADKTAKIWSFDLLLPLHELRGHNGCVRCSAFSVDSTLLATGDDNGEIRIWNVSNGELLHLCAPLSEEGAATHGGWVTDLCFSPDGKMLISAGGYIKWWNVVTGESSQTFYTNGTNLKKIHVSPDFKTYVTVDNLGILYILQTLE

B1: Bcl2L12-V5: Bcl2L12 polypeptide having the V5 epitope tag, ectopically expressed from pBabe-Bcl2L12-V5 vector; human amino acid sequence 1-334 (protein)
chain: MGRPAGLFPPLCPFLGFRPEACWERHMQIERAPSVPPFLRWAGYRPGPVRRRGKVELIKFVRVQWRRPQVEWRRRRWGPGPGASMAGSEELGLREDTLRVLAAFLRRGEAAGSPVPTPPRSPAQEEPTDFLSRLRRCLPCSLGRGAAPSESPRPCSLPIRPCYGLEPGPATPDFYALVAQRLEQLVQEQLKSPPSPELQGPPSTEKEAILRRLVALLEEEAEVINQKLASDPALRSKLVRLSSDSFARLVELFCSRDDSSRPSRACPGPPPPSPEPLARLALAMELSRRVAGLGGTLAGLSVEHVHSFTPWIQAHGGWEGILAVSPVDLNLPLD
modifications: left off: small tags and cut ends
B2: Bcl2L12-V5-ΔBH2: V5 tagged mutant lacking amino acid residues 311-334 (BH2 domain) of human Bcl2L12; sequence 1-310 (protein)
chain: MGRPAGLFPPLCPFLGFRPEACWERHMQIERAPSVPPFLRWAGYRPGPVRRRGKVELIKFVRVQWRRPQVEWRRRRWGPGPGASMAGSEELGLREDTLRVLAAFLRRGEAAGSPVPTPPRSPAQEEPTDFLSRLRRCLPCSLGRGAAPSESPRPCSLPIRPCYGLEPGPATPDFYALVAQRLEQLVQEQLKSPPSPELQGPPSTEKEAILRRLVALLEEEAEVINQKLASDPALRSKLVRLSSDSFARLVELFCSRDDSSRPSRACPGPPPPSPEPLARLALAMELSRRVAGLGGTLAGLSVEHVHSFTP
modifications: left off: small tags and cut ends

Legend:
[1] = test system: caspase-2; caspase-3/7; caspase-6; caspase-8; and caspase-9; test: Caspase activity with AFC-labeled peptides in lysates of STS-treated astrocytes; type: cell-based; details: for caspase activity (caspase-2, -3/7, -6, -8, -9): STS (500 nm) 24 hours
Description: The following experiment was performed to determine whether Bcl2L12 inhibits caspase activation. Briefly, a caspase activation profile was generated using fluorochrome-labeled peptides resembling the ideal cleavage sites for caspases-2 (VDVAF; SEQ ID NO:29), caspases-3/7 (DEVD; SEQ ID NO:27), caspase-6 (VEID; SEQ ID NO:31), caspase-8 (IETD; SEQ ID NO:30), and caspase-9 (LEHD; SEQ ID NO:28). Two confluent 15 cm dishes of astrocytes (pBabe or Bcl2L12-V5 transfected) were left untreated or treated with STS (500 nm) for 24 hours and lysed in a lysis buffer containing 1% Trition X-100. The lysed cells were then spun for 15 minutes at 14,000 rpm at 4° C. to obtain a postnuclear supernatant. The supernatants (standardized to 20 mg of protein) were incubated with 40 μM of AFC labeled peptide substrate for 1 hour at 37° C. The samples were read in a fluorescence plate reader, and the specific RFUs were calculated. In the presence of active caspases, the fluorogenic group AFC is released from the peptide, and its fluorescence can be quantified using a plate reader.
The mechanism of action of EGFR*, in contrast to Bcl2L12, stems from the activation of upstream survival pathways that converge to inhibit cytochrome c redistribution and subsequent caspase-9 processing (FIG. 8B), as reported previously (Nagane et al., Proc Natl Acad Sci USA 95:5724-9(1998)). In addition, the ability of Bcl2L12 polypeptide to inhibit effector caspase function is reflected in decreased levels of the caspase-9 p37 as a result of caspase-3-mediated cleavage intermediate (FIG. 8A, 16 hours; Fujita et al., Cell Death Differ. 8:335-44 (2001)). […] As a consequence of a caspase-3-mediated feedback mechanism (Fujita et al., Cell Death Differ. 8:335-44 (2001); Slee et al., J Cell Biol. 144, 281-92 (1999)), caspase-9 processing in later phases of apoptosis progression was enhanced (FIG. 8C, 16 hours). […] Caspase activities were determined fluorometrically using a fluorescence plate reader. […]

[2] = target: T1, Apaf-1 polypeptide; test: Co-immunoprecipitation of endogenous Apaf-1 in 293T cells; type: binding; details: anti-V5 immunoprecipitation from 293T cells
Description: To confirm this interaction, 293T cells were used to test the physical interaction between Apaf-1 and Bcl2L12 polypeptides in vivo. […] To test the association between Apaf-1 and Bcl2L12 polypeptides in vivo, Bcl2L12-V5 polypeptides were expressed in 293T cells and immunoprecipitated with an anti-V5 antibody. The amount of co-immunoprecipitated endogenous Apaf-1 polypeptide then was determined by Western blot analysis.
To assess whether the BH2 domain is necessary for Apaf-1 binding, Bcl2L12-V5-ΔBH2 polypeptides were immunoprecipitated from 293T cells, and co-immunoprecipitated Apaf-1 was quantified as described.

Row | Molecule | DEVDase activity ([1]; 0.5 μM STS, pBabe about 8500 RFUs) | caspase activity (caspase-2, -3/7, -6, -8, -9) [1] | association with Apaf-1 polypeptide [2]
1 | B1 | about 3500 RFUs | significantly impaired | found to be associated
2 | B2 |  | even more pronounced inhibition | bound comparable levels of Apaf-1 polypeptide
